Reference: publication PMC10629557, “Regulation of replication origin licensing by ORC phosphorylation reveals a two-step mechanism for Mcm2-7 ring closing” (Proceedings of the National Academy of Sciences of the …, 2023)

B1: FLAG-Clb5-Cdk1 (complex)
chain 1: MGENHDHEQSIKRNSMIYNENERQLCNSNLKILQNKRALSKNDSSSKQQVQDSKPRRALTDVPVNNNPLSQNKRIVAGSKAAKVRREENIRPIVSAVQKRQIYNDRTAAEQEEEEEEEGEDDDAASIVNKKRRIDAEGVSEIVGWQDLDYVEKDDTAMVAEYSAEIFAFLYRRELETLPSHNYLLDKTSKYYLRPSMRTILVDWLVEVHEKFQCYPETLFLSINLMDRFLAKNKVTMNKLQLLAVTSLFIAAKFEEVNLPKLAEYAYITDGAASKNDIKNAEMFMLTSLEFNIGWPNPLNFLRRISKADDYDPVNRNIGKFILEYAYCCHQFIHLPPSTVSAMAMYIARRMTNRNKNELWNGTLQHYSGGIDPIHDEAFQSLCIDLVKDIASSKTHLDSLILKYKKPRYGSVYFQTFKWCTSEMHSNFQNLFNLK
chain 2: not shown
notes: Clb5, S-phase B-type cyclin, S. cerevisiae; Cdk1 (Cdc28), cyclin-dependent kinase, S. cerevisiae; also called Clb5-Cdc28; source: S. cerevisiae strain ySK119, purified

How the values were obtained:
[1] = target: T1, origin recognition complex (ORC), wild type, unphosphorylated (S. cerevisiae, UniProt P54784 1-914; P32833 1-620; P54790 1-616; P54791 1-529; P50874 1-479; P38826 …); assay: co-IP; purified proteins: 5 pmol FLAG-Clb5-Cdk1 and 10 pmol ORC in 20 uL SM buffer with 1 mM ATP, 20 min; 10 pmol GST-Sic1 added to one of two reactions for 5 min; magnetic anti-Flag beads, 3 washes, elution with 3xFLAG peptide, SDS gel; conditions: both partners purified
T1 construct: Orc1, subunit of the origin recognition complex, S. cerevisiae; Orc2, subunit of the origin recognition complex, S. cerevisiae; Orc3, subunit of the origin recognition complex, S. cerevisiae; Orc4, subunit of the origin recognition complex, S. cerevisiae; Orc5, subunit of the origin recognition complex, S. cerevisiae; Orc6, subunit of the origin recognition complex, S. cerevisiae; For the …

FLAG-Clb5-Cdk1 = target: B1; assay: as above; conditions: both partners purified
Sequence of FLAG-Clb5-Cdk1 (P00546 whole entry): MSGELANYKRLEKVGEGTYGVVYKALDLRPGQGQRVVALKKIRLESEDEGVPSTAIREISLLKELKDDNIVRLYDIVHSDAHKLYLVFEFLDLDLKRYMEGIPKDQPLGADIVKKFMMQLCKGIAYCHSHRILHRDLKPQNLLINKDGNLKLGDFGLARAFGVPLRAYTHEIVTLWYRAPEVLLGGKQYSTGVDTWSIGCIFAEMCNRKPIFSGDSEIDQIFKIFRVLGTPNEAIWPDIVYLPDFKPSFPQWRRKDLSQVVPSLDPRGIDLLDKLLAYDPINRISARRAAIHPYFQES

binding result [1]	binding result (FLAG-Clb5-Cdk1)	Binder
binds		B1
	binds	GST-Sic1 (natural protein, S. cerevisiae, UniProt P38634 1-284, looked up, source: E. coli BL21-DE3-Rosetta (plasmid pGEX-Sic1), purified (glutathione elution)) MTPSTPPRSRGTRYLAQPSGNTSSSALMQGQKTPQKPSQNLVPVTPSTTKSFKNAPLLAPPNSNMGMTSPFNGLTSPQRSPFPKSSVKRTLFQFESHDNGTVREEQEPLGRVNRILFPTQQNVDIDAAEEEEEGEVLLPPSRPTSARQLHLSLERDEFDQTHRKKIIKDVPGTPSDKVITFELAKNWNNNSPKNDARSQESEDEEDIIINPVRVGKNPFASDELVTQEIRNERKRAMLRENPDIEDVITYVNKKGEVVEKRRLTDEEKRRFKPKALFQSRDQEH
